Starred links: 1 amine or outer side, 2 acyl side, 3 side chain; linkers in the order of their positions; H or OH if unused. Positions of bridges follow the written chain, without caps; N, C: chain ends. Non-standard residues stand in square brackets, D forms with d. Primed or numbered codes have the meaning given here. ξ: configuration not given here. PyrS2″ = (S)-3-amino-1-((pent-4-en-1-yloxy)carbonyl)pyrrolidine-3-carboxylic acid (stapling residue), C=CCCCOC(=O)N1CC[C@@](N[*:1])(C(=O)[*:2])C1; B5(23) = 2-amino-2-(pent-4-en-1-yl)hept-6-enoic acid (2,2-bis(4-pentenyl)glycine), stitching residue, C=CCCCC(CCCC=C)(N[*:1])C(=O)[*:2]; B5(4) = 2,2-bis(4-pentenyl)glycine = 2-amino-2-(pent-4-en-1-yl)hept-6-enoic acid (stitching residue), C=CCCCC(CCCC=C)(N[*:1])C(=O)[*:2]; TfeGA = (S)-2-amino-3-((carboxymethyl)(2,2,2-trifluoroethyl)amino)propanoic acid, O=C([C@H](CN(CC(=O)[*:3])CC(F)(F)F)N[*:1])[*:2]; PyrS2 = (S)-3-amino-1-((pent-4-en-1-yloxy)carbonyl)pyrrolidine-3-carboxylic acid, C=CCCCOC(=O)N1CC[C@@](N[*:1])(C(=O)[*:2])C1; PyrS3 = (S)-3-amino-1-((hex-5-en-1-yloxy)carbonyl)pyrrolidine-3-carboxylic acid, C=CCCCCOC(=O)N1CC[C@@](N[*:1])(C(=O)[*:2])C1; B5(7) = 2-amino-2-(pent-4-en-1-yl)hept-6-enoic acid, two olefinic side chains, C=CCCCC(CCCC=C)(N[*:1])C(=O)[*:2]; B5(3) = 2,2-bis(4-pentenyl)glycine (stitching residue), C=CCCCC(CCCC=C)(N[*:1])C(=O)[*:2]; Phe(3-COOH) = N[C@@H](Cc1cccc(C(=O)O)c1)C(=O)O; Phe(2-CF3) = N[C@@H](Cc1ccccc1C(F)(F)F)C(=O)O; Phe(2-Cl) = N[C@@H](Cc1ccccc1Cl)C(=O)O; Bta = N[C@@H](Cc1csc2ccccc12)C(=O)O; αAllylPro = C=CC[C@@]1(C(=O)O)CCCN1; tBuAla = CC(C)(C)C[C@H](N)C(=O)O; 3Thi = N[C@@H](Cc1ccsc1)C(=O)O; Cha = N[C@@H](CC1CCCCC1)C(=O)O; ξβ3hD = NC(CC(=O)O)CC(=O)O; Aib = CC(C)(N)C(=O)O
T1: B-cat-Halo (UniProt P35222 1-781)
T1 sequence (looked up): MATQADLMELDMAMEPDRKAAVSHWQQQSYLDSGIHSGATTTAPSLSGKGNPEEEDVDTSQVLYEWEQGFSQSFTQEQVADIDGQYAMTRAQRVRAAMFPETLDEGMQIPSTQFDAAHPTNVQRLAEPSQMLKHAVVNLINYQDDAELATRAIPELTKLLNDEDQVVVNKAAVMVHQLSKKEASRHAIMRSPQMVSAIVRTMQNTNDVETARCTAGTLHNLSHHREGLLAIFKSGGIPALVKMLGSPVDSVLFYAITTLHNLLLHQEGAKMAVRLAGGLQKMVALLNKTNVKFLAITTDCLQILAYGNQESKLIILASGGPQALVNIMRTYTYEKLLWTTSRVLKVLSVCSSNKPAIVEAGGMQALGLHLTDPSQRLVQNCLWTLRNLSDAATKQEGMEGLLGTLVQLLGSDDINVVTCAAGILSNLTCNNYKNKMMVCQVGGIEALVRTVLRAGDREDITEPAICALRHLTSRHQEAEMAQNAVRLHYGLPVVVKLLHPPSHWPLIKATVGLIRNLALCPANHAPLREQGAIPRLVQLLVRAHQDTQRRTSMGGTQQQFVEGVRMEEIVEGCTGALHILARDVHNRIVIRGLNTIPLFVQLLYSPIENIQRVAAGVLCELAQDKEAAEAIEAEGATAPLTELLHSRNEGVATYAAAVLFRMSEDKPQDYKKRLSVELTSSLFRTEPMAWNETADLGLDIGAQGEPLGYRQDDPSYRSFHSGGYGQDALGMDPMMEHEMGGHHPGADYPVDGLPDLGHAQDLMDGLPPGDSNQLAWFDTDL

T2: B-cat-Halo (beta-catenin HaloTag NanoBRET construct expressed in HEK293 cells) (UniProt P35222 1-781)
T2 sequence (looked up): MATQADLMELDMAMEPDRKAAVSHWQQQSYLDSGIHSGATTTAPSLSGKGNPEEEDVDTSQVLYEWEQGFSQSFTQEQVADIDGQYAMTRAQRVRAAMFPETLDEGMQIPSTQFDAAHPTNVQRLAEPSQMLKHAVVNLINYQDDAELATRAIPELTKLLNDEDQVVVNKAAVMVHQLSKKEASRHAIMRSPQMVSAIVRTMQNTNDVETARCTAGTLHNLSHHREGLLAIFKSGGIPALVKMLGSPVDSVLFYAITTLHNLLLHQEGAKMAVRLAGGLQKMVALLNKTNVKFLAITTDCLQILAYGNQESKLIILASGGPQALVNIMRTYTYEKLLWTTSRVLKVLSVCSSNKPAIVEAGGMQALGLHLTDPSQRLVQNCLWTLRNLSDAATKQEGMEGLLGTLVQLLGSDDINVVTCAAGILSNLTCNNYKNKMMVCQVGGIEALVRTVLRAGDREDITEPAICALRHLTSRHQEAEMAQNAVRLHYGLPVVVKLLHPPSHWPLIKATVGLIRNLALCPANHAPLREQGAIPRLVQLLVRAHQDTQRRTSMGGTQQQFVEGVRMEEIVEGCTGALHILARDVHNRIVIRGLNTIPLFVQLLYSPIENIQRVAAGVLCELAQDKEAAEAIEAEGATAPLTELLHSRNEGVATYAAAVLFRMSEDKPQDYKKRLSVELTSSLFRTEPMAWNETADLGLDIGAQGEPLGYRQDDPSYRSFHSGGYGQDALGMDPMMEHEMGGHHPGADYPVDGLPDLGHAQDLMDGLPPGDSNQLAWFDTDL

T3: B-cat-Halo (UniProt P35222 1-781)
T3 sequence (looked up): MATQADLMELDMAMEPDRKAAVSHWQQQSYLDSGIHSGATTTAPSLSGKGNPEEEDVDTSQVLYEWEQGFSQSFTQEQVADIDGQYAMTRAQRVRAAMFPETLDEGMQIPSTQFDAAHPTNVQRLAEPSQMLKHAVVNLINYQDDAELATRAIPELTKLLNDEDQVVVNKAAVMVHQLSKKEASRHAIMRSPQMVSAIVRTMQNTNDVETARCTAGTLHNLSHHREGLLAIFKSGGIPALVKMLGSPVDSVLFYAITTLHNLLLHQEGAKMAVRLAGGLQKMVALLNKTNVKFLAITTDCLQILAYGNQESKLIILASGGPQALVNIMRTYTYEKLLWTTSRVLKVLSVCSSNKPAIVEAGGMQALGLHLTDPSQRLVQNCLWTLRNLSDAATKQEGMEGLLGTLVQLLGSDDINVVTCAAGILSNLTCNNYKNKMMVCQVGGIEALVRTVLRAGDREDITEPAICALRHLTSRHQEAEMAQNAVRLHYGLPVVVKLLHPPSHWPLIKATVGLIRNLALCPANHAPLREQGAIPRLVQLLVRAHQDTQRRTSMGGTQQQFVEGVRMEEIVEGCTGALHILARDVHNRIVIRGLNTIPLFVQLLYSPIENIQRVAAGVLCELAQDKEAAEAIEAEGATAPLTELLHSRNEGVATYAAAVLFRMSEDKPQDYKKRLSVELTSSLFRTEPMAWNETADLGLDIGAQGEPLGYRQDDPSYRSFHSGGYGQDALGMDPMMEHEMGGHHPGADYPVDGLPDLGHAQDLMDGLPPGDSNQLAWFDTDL

T4: B-cat-Halo (NanoBRET construct expressed in HEK293 cells) (UniProt P35222 1-781, HaloTag NanoBRET 618 Ligand bound in the assay)
T4 sequence (looked up): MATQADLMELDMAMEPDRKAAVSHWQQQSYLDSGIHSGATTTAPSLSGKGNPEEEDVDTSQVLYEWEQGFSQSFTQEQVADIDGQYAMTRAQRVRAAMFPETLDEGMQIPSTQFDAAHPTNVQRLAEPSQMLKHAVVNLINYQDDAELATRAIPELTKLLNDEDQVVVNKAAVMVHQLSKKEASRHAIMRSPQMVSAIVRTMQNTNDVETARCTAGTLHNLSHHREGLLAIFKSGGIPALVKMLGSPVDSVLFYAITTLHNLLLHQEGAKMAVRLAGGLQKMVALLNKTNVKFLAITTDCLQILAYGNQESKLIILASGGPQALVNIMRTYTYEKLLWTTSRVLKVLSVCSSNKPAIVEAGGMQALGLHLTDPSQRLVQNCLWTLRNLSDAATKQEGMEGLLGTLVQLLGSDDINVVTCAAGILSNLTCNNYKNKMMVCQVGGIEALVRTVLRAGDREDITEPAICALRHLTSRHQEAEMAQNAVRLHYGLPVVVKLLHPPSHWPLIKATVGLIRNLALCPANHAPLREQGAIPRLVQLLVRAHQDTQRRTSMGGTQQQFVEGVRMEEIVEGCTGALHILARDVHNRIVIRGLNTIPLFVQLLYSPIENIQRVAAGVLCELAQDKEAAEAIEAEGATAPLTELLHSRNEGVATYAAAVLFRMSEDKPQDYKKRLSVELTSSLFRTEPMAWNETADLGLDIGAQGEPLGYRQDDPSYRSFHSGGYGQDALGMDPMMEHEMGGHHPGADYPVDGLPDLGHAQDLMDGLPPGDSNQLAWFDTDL

B1: I-1177 (peptide)
peptide: Ac-[αAllylPro]D[tBuAla][B5(4)]DD[Aib]AFL[PyrS2″][3Thi][Bta]Q-NH2
modifications: staple 1-4, 4-11
B2: I-1161 (peptide)
peptide: Ac-[αAllylPro][ξβ3hD][tBuAla][B5(4)]D[TfeGA]AAFN[PyrS2″][3Thi][Bta]Q-NH2
modifications: staple 1-4, 4-11
B3: I-1167 (peptide)
peptide: Ac-[αAllylPro]D[tBuAla][B5(4)]DTAAFL[PyrS2″][3Thi][Bta]Q-NH2
modifications: staple 1-4, 4-11
B4: I-1168 (peptide)
peptide: Ac-[αAllylPro]D[tBuAla][B5(4)]DTAAFT[PyrS2″][Phe(2-Cl)][Bta]Q-NH2
modifications: staple 1-4, 4-11
B5: I-1173 (peptide)
peptide: Ac-[αAllylPro]D[Cha][B5(4)]DTAAFT[PyrS2″][3Thi][Bta]Q-NH2
modifications: staple 1-4, 4-11
B6: I-1171 (peptide)
peptide: Ac-[αAllylPro]D[tBuAla][B5(4)]DTAAFL[PyrS2″][3Thi][Bta]S-NH2
modifications: staple 1-4, 4-11
B7: I-1172 (peptide)
peptide: Ac-[αAllylPro]D[tBuAla][B5(4)]DTAAFL[PyrS2″][Phe(2-Cl)][Bta]S-NH2
modifications: staple 1-4, 4-11
B8: I-1166 (peptide)
peptide: Ac-[αAllylPro]D[tBuAla][B5(4)]DTAAFT[PyrS2″][3Thi][Bta]Q-NH2
modifications: staple 1-4, 4-11
B9: I-1175 (peptide)
peptide: Ac-[αAllylPro]D[Cha][B5(4)]DTAAFT[PyrS2″][Phe(2-Cl)][Bta]Q-NH2
modifications: staple 1-4, 4-11
B10: I-1170 (peptide)
peptide: Ac-[αAllylPro]D[tBuAla][B5(4)]DTAAFT[PyrS2″][3Thi][Bta]S-NH2
modifications: staple 1-4, 4-11
B11: I-1178 (peptide)
peptide: Ac-[αAllylPro]D[tBuAla][B5(4)]DDA[Aib]FL[PyrS2″][3Thi][Bta]Q-NH2
modifications: staple 1-4, 4-11
B12: I-1174 (peptide)
peptide: Ac-[αAllylPro]D[Cha][B5(4)]DTAAFL[PyrS2″][3Thi][Bta]Q-NH2
modifications: staple 1-4, 4-11
B13: Ac-PL3-Asp-Npg-B5-Asp-3COOHF-Gln-Ala-Phe-Leu-PyrS2-2F3MeF-2F3MeW-Ala-NH2 (peptide)
peptide: Ac-[αAllylPro]D[tBuAla][B5(3)]D[Phe(3-COOH)]QAFL[PyrS2″][Phe(2-CF3)][2F3MeW]A-NH2
modifications: staple 1-4, 4-11
B14: Ac-PL3-Asp-Npg-B5-Asp-3COOHF-Ala-Ala-Phe-Leu-PyrS2-2F3MeF-2F3MeW-Gln-NH2 (peptide)
peptide: Ac-[αAllylPro]D[tBuAla][B5(3)]D[Phe(3-COOH)]AAFL[PyrS2″][Phe(2-CF3)][2F3MeW]Q-NH2
modifications: staple 1-4, 4-11
B15: I-1556 (peptide)
peptide: Ac-[αAllylPro]DA[B5(23)]NNAAFN[PyrS2][3Thi][Bta]Q-NH2
modifications: staple 1-4, 4-11
B16: I-764 (peptide)
peptide: Ac-[αAllylPro]D[tBuAla][B5(7)]DDAAFQ[PyrS2][3Thi][Bta]Q-NH2
modifications: staple 1-4, 4-11
B17: I-767 (peptide)
peptide: Ac-[αAllylPro]D[tBuAla][B5(7)]DDAAFN[PyrS3][3Thi][Bta]Q-NH2
modifications: staple 1-4, 4-11

biological target: T1, B-cat-Halo; assay: cell-based or functional assay

First: B1
Second: B2
The “NanoBRET Abs IC50” value of the first is lower: 4.3 µM for the first, greater than 20 µM for the second.

Going from B3 to B4, the “NanoBRET Abs IC50” value rises from 11.7 µM to 31.4 µM (2.7-fold).

Compared with B5, B6 is 1.7-fold higher in “NanoBRET Abs IC50” value: 17.2 µM for the first, 28.8 µM for the second.

B7 and B8 are within 1.5-fold of each other in “NanoBRET Abs IC50” value: 19.4 µM for the first, 14.6 µM for the second.

Compared with B9, B10 is 2-fold lower in “NanoBRET Abs IC50” value: 27.3 µM for the first, 13.5 µM for the second.

B11 and B12 are within 1.5-fold of each other in “NanoBRET Abs IC50” value: 28.8 µM for the first, 32.6 µM for the second.

biological target: T2, B-cat-Halo (beta-catenin HaloTag …); assay: cell-based or functional assay

B13 and B14 cannot be ordered by “NanoBRET Abs IC50” value: greater than 20 µM for the first, greater than 20 µM for the second.

biological target: T3, B-cat-Halo; assay: cell-based or functional assay

B15 was tested, and the “NanoBRET Abs IC50” value was greater than 20 µM.

biological target: T4, B-cat-Halo (NanoBRET construct …); assay: cell-based or functional assay

B16 and B17 are within 1.5-fold of each other in “NanoBRET Abs IC50” value: 30.9 µM for the first, 37.2 µM for the second.
